Source: US20240309116A1 (ZHEJIANG SHIMAI PHARMACEUTICAL, published 2024)

B1: anti-ROR1 3A3 Fab (Fab, V domains shown)
VH: EVQLVESGGGVVQPGRSLRLSCAASGFTFSSYGMHWVRQAPGKGLEWVAVISYDGSNKYYADSVKGRFTISRDNSKNTLYLQMNSLRAEDTAVYYCAKDLDYSLWFDPWGQGTLVTVSS
VL: DVVMTQSPLSLPVTPGEPASISCRSSQSLLQSNGYNYVEWFLQKPGQSPQLLIYLGSYRASGVPDRFSGSGSGTDFTLKISRVEAEDVGVYYCMQGTHWPLFTFGPGTKVDIK
notes: Human Fab from a phage library, kappa light chain, hexahistidine-tagged, expressed in E. coli HB2151; detected with an anti-FLAG antibody; also called Fab clone 3A3
B2: anti-ROR1 monoclonal antibody 3A3 (antibody, V domains shown)
VH: B1 VH
VL: DVVMTQSPLSLPVTPGEPASISCRSSQSLLQSNGYNYVEWFLQKPGQSPQLLIYLGSYRASGVPDRFSGSGSGTDFTLKISRVEAEDVGVYYCMQGTHWPLFTFGPGTKVDIKR
notes: Intact human IgG1 kappa (Fd of the Fab fused to human IgG1 Fc), about 150 kDa non-reduced; also called 3A3 mAb; 3A3 Mab
B3: anti-ROR1 2H3 Fab (Fab, V domains shown)
VH: QVQLVQSGAEVKKTGSSVKVSCKASGYTFTYRYLHWVRQAPGQALEWMGWITPFNGNTNYAQKFQDRVTITRDRSMSTAYMELSSLRSEDTAMYYCARSGPRGDYVLDYWGQGTLVTVSS
VL: EIVLTQSPATLSLSPGERATLSCRASQSVSSYLAWYQQKPGQAPRLLIYDASNRATGIPARFSGSGSGTDFTLTISSLEPEDFAVYYCQQRSNWPLTFGGGTKVEIK
notes: Human Fab from a phage library, kappa light chain, hexahistidine-tagged, expressed in E. coli HB2151; also called Fab clone 2H3
B4: anti-ROR1 monoclonal antibody 2H3 (antibody, V domains shown)
VH: B3 VH
VL: EIVLTQSPATLSLSPGERATLSCRASQSVSSYLAWYQQKPGQAPRLLIYDASNRATGIPARFSGSGSGTDFTLTISSLEPEDFAVYYCQQRSNWPLTFGGGTKVEIKR
notes: Intact human IgG1 kappa (Fd of the Fab fused to human IgG1 Fc), about 150 kDa non-reduced; also called 2H3 mAb; 2H3 Mab

Experiments:
[1] = target: T1, recombinant human ROR1 (full-length extracellular domain) (human, UniProt Q01973 30-406); experiment: ELISA, ROR1 coated on the plate, Fab detected with HRP anti-FLAG antibody
T1 construct: extracellular domain; Bought protein; also called human ROR1 protein; full extracellular domain
T1 sequence (Q01973 30-406): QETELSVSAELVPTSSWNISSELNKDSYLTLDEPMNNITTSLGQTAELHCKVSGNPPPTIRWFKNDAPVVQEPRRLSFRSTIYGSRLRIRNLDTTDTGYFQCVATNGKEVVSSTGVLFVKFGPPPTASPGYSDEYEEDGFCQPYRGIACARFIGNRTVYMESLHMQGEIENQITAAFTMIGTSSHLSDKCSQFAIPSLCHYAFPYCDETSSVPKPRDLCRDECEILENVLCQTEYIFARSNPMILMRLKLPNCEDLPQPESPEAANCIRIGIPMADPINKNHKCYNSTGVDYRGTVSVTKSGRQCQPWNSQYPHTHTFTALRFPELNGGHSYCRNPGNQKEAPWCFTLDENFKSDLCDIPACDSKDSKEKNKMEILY
Procedure: The hexahistidine-tagged Fabs 2H3 and 3A3 were expressed in E. coli strain HB2151 and purified from the soluble fraction of periplasm by using the Ni-NTA resin. Then ELISA was performed by using standard protocols to measure binding affinity to recombinant human ROR1 (full-length extracellular domain). Briefly, the recombinant human ROR1 (ACROBiosystems) was coated on Corning EIA/RIA high-binding 96-well plates (Corning Inc.) at 50 ng per well overnight at 4° C. and blocked with 3% nonfat milk in PBS (pH7.4). Fivefold serially diluted antibodies were added and incubated at room temperature for 2 h. The plates were washed with PBS containing 0.05% Tween 20. Bound antibodies were detected by HRP-conjugated anti-FLAG tag antibody (Sino Biological). The assay was developed at room temperature with TMB substrate (Solarbio) and OD value was measured at 450 nm with a microplate reader.

[2] = target: T1, recombinant human ROR1 (full-length …); experiment: ELISA, antigen coated on the plate, biotinylated antibody detected with HRP streptavidin
Procedure: (§1) ELISA was performed according to standard protocols, to determine binding affinity of anti-ROR1 mAB 2H3 and 3A3 to full extracellular domain and individual extracellular Ig-like domain, frizzled domain, and kringle domain of human ROR1. Briefly, recombinant human ROR1 (AcroBiosystems) were coated on Corning EIA/RIA high-binding 96-well plates (Corning Inc.) at 50 ng per well overnight at 4° C. and blocked with 3% nonfat milk in PBS (pH7.4). Fivefold serially diluted biotinylated antibodies were added and incubated at room temperature for 2 h. The plates were washed with PBS containing 0.05% Tween 20. Bound antibodies were detected by HRP-conjugated streptavidin (Sino Biological). The assay was developed at room temperature with TMB substrate (Solarbio) and monitored at 450 nm with a microplate reader. The half-maximal binding (EC₅₀) was calculated by fitting the data to the Langmuir adsorption isotherm.

[3] = target: T2, human ROR1 (39-151, Ig-like domain) protein (human, UniProt Q01973 39-151); experiment: as above
T2 construct: range 39-151; Bought protein; also called Ig-like domain of ROR1
T2 sequence (Q01973 39-151 limits assumed, form in doubt): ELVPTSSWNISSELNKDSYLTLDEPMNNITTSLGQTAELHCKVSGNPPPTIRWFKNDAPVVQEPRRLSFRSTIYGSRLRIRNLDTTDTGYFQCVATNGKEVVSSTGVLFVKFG
Procedure: as §1

[4] = target: T3, human/Cynomolgus/Rhesus macaque ROR1 (308-395, Kringle domain) protein (human/Cynomolgus/Rhesus macaque, UniProt Q01973 308-395); experiment: as above
T3 construct: range 308-395; Bought protein; also called kringle domain of ROR1
T3 sequence (Q01973 308-395 limits assumed, form in doubt): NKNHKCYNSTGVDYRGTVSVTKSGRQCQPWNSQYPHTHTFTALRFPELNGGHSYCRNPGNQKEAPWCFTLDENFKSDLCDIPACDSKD
Procedure: as §1

Binder | EC50 [1] [nM] | EC50 [2] [nM] | EC50 [3] [nM] | EC50 [4] [nM]
B1 | ~36 |  |  | 
B2 |  | 0.18 | 3.1 | 
B3 | ~16 |  |  | 
B4 |  | 0.2 |  | 1.2
